Assay [1] addresses DRP-bound αβ-tubulin (1:1 complex of porcine αβ-tubulin and DARPin D1) (porcine) (UniProt P02550). Put plainly: ITC; TOG1 or TOG2 (100-250 μM) injected into a cell with 1:1 αβ-tubulin and DRP (20-40 μM); 25°C, 50 mM HEPES pH 7.3, 200 mM KCl, 1 mM MgCl2. (In general: In ITC the heat of successive injections is recorded.)
For assay [2] the target is unchanged. Put plainly: ITC; TOG1 or TOG2 (100-250 μM) injected into a cell with 1:1 αβ-tubulin and DRP (20-40 μM); 25°C, 50 mM HEPES pH 7.3, 100 mM KCl, 1 mM MgCl2.
The target of assay [3] is αβ-tubulin heterodimer purified from porcine brains (porcine) (UniProt P02550). Put plainly: SEC; quantitative SEC (Superdex 200 10/300) with SDS-PAGE densitometry of fractions; 1 αβ-tubulin per Alp14 subunit, with or without DRP; 100 mM KCl, 50 mM HEPES pH 7.0, 1 mM MgCl2, 1 mM β-mercaptoethanol.
Assay [4] concerns the target DRP-bound αβ-tubulin (1:1 complex of porcine αβ-tubulin and DARPin D1) (porcine) (UniProt P02550). The description is as above.
Assay [5] deals with αβ-tubulin heterodimer purified from porcine brains (porcine) (UniProt P02550). Put plainly: SEC; quantitative SEC (Superdex 200 10/300) with SDS-PAGE densitometry of fractions; 2 αβ-tubulin per Alp14 subunit, with or without DRP; 200 mM KCl, 50 mM HEPES pH 7.0, 1 mM MgCl2, 1 mM β-mercaptoethanol. (SEC sorts molecules by how far they enter the pores of the column.)
The target of assay [6] is DRP-bound αβ-tubulin (1:1 complex of porcine αβ-tubulin and DARPin D1) (porcine) (UniProt P02550). Described as above.
For assay [7], the target named is αβ-tubulin heterodimer purified from porcine brains (porcine) (UniProt P02550). Put plainly: SEC-MALS; Alp14 constructs mixed with soluble αβ-tubulin (with or without DRP), Superdex 200 Increase 10/300, 80-100 mM KCl.
Assay [8] has as its target DRP-bound αβ-tubulin (1:1 complex of porcine αβ-tubulin and DARPin D1) (porcine) (UniProt P02550). Described as above.
In assay [9] the target is αβ-tubulin heterodimer purified from porcine brains (porcine) (UniProt P02550). Put plainly: SEC; quantitative SEC (Superdex 200 10/300) with SDS-PAGE densitometry of fractions; 2 αβ-tubulin per Alp14 subunit, with or without DRP; 100 mM KCl, 50 mM HEPES pH 7.0, 1 mM MgCl2, 1 mM β-mercaptoethanol.
The target in assay [10] is DRP-bound αβ-tubulin (1:1 complex of porcine αβ-tubulin and DARPin D1) (porcine) (UniProt P02550). The description is as above.
Assay [11] addresses αβ-tubulin heterodimer purified from porcine brains (porcine) (UniProt P02550). Put plainly: SEC; quantitative SEC (Superdex 200 10/300) with SDS-PAGE densitometry of fractions; 1 αβ-tubulin per Alp14 subunit, with or without DRP; 200 mM KCl, 50 mM HEPES pH 7.0, 1 mM MgCl2, 1 mM β-mercaptoethanol.
Assay [12] concerns the target DRP-bound αβ-tubulin (1:1 complex of porcine αβ-tubulin and DARPin D1) (porcine) (UniProt P02550). Described as above.

Data on four molecules can be found in article PMC6251626.

B1: isolated TOG1 domain of Alp14 (residues 1-270) (domain or fragment)
chain: MSQDQEEDYSKLPLESRIVHKVWKVRLSAYEECSKSFSLSADGSDNCFELWNNQSELWKSVLTDSNVAAQEAGTAAFVAYCRFSDPSHLLKAREISVLSISEKCLTSPRAGTRENALEALMLLVEADSAAPVIESIIPSLSARSPKVIASNVAAIASLVEQFGAKVIPSKMIIPHISNLFGHADKNVRKEASRLTVNIYRWTGDPLKDLLFKDLRPVQTKELESLFAELPTEPPKQTRFLKSQQPTSEPNVETQVEEQPALENEESEPEP
Consider B1, for which the dissociation constant (Kd) came out at 1500 nM in assay [1] and 70 nM in assay [2].

B2: wt-Alp14-monomer (S. pombe Alp14 residues 1-510) (domain or fragment)
chain: MSQDQEEDYSKLPLESRIVHKVWKVRLSAYEECSKSFSLSADGSDNCFELWNNQSELWKSVLTDSNVAAQEAGTAAFVAYCRFSDPSHLLKAREISVLSISEKCLTSPRAGTRENALEALMLLVEADSAAPVIESIIPSLSARSPKVIASNVAAIASLVEQFGAKVIPSKMIIPHISNLFGHADKNVRKEASRLTVNIYRWTGDPLKDLLFKDLRPVQTKELESLFAELPTEPPKQTRFLKSQQPTSEPNVETQVEEQPALENEESEPEPSDDQFDLVEEVDVLPNVDPNLETLMASSKWKDRKEALDKLLPVLSQPKIKDNDFFNLVAILTKSVSKDANIMVVINAAHCIQAMAKGLRSNFSKYASTSINALLERSKEKKANVIESLSSAMDAVLATSSLDDLAELIASFAGNKNPQIKSSCFSLFSRSFSNMTSLPSKFTVDTCAKACVPGVSDTFEPVRSAAAEALGVLMKLVGERAINQYLSPLDDIRKSKIRSFYETATVKAKAP
As to B2, the TOG1-TOG2:αβ-tubulin molar ratio in assay [3] was determined as 1.04; in [4], 0.98; in assay [5] it was 1.35; in [6], 1.28; in [9], 2; in assay [10] it was 1.64. In addition, the TOG1-TOG2:αβ-tubulin molar ratio was found to be 0.76 in [11] and 0.94 in [12]. Besides, the µM tubulin bound in assay [3] was 4.57 µM; in assay [4] it was 4.33 µM; in assay [5], 5.97 µM; in assay [6], 5.67 µM; in [9], 8.82 µM; in assay [10], 7.23 µM. Besides, the µM tubulin bound in [11] worked out at 3.37 µM; in assay [12] it was 4.13 µM. In addition, the stoichiometry N in assay [7] and in [8] was 2 each time.

B3: isolated TOG2 domain of Alp14 (residues 320-510) (domain or fragment)
chain: KDNDFFNLVAILTKSVSKDANIMVVINAAHCIQAMAKGLRSNFSKYASTSINALLERSKEKKANVIESLSSAMDAVLATSSLDDLAELIASFAGNKNPQIKSSCFSLFSRSFSNMTSLPSKFTVDTCAKACVPGVSDTFEPVRSAAAEALGVLMKLVGERAINQYLSPLDDIRKSKIRSFYETATVKAKAP
B3: the dissociation constant (Kd) in assay [1] was 3250 nM; in assay [2], 173 nM.

B4: wt-Alp14-dimer (S. pombe Alp14 residues 1-690) (domain or fragment)
chain: MSQDQEEDYSKLPLESRIVHKVWKVRLSAYEECSKSFSLSADGSDNCFELWNNQSELWKSVLTDSNVAAQEAGTAAFVAYCRFSDPSHLLKAREISVLSISEKCLTSPRAGTRENALEALMLLVEADSAAPVIESIIPSLSARSPKVIASNVAAIASLVEQFGAKVIPSKMIIPHISNLFGHADKNVRKEASRLTVNIYRWTGDPLKDLLFKDLRPVQTKELESLFAELPTEPPKQTRFLKSQQPTSEPNVETQVEEQPALENEESEPEPSDDQFDLVEEVDVLPNVDPNLETLMASSKWKDRKEALDKLLPVLSQPKIKDNDFFNLVAILTKSVSKDANIMVVINAAHCIQAMAKGLRSNFSKYASTSINALLERSKEKKANVIESLSSAMDAVLATSSLDDLAELIASFAGNKNPQIKSSCFSLFSRSFSNMTSLPSKFTVDTCAKACVPGVSDTFEPVRSAAAEALGVLMKLVGERAINQYLSPLDDIRKSKIRSFYETATVKAKAPTKKSKVKPSKQEESKVVVPSNAKAVKKSVVPSSPVVPSPRKATNKSLSMDVSKGNAFENGPLLPRPTTRPVSRGLSRGTSSSLQQKVKASTPLNSGALNETVQNLKNMELDDPAPQPAKHSRVDRYEHPKVLEDNDSTISSLESLKRENEELREQLKVEHEENISMQKQLSELKGELNTL
As for B4, the TOG1-TOG2:αβ-tubulin molar ratio in assay [3] was determined as 0.98; in assay [4] it was 0.96; in [5], 1.24; in assay [6], 1.36; in assay [9], 1.61; in [10] it was 1.89. The TOG1-TOG2:αβ-tubulin molar ratio came out at 0.78 in [11] and 0.95 in assay [12]. Besides, the µM tubulin bound turned out to be 4.31 µM in assay [3]; 4.23 µM in assay [4]; 5.46 µM in assay [5]; 6.02 µM in assay [6]; 7.11 µM in assay [9]; 8.33 µM in assay [10]. For the same molecule, the µM tubulin bound in assay [11] is 3.44 µM; in [12], 4.17 µM. The stoichiometry N in assay [7] and in [10] was 4 throughout.

As a reminder, the Kd is the constant that tells how readily two partners part at equilibrium. A low value points to higher affinity. The term stoichiometry N denotes the number of molecules, sites or subunits per partner or assembly.
